Test results reported in article PMC7251212, “Molecular Insight into TdfH-Mediated Zinc Piracy from Human Calprotectin by Neisseria gonorrhoeae” (mBio, 2020).

T1: recombinant TdfH (Neisseria gonorrhoeae TonB-dependent transporter, NGO0952) (Neisseria gonorrhoeae, UniProt A0ACH0F8A9 1-922)
T1 construct: TdfH, Neisseria gonorrhoeae, locus NGO0952; full-length tdfH gene, codon-optimised for E. coli; The tag of pHIS2 is not described: the N-terminal 10x His tag and TEV site are told of the modified pET20b vector, which was not the source of the protein used; also called recombinantly produced TdfH; purified TdfH; not shown: His tag (from the Ni-NTA purification)
T1 sequence: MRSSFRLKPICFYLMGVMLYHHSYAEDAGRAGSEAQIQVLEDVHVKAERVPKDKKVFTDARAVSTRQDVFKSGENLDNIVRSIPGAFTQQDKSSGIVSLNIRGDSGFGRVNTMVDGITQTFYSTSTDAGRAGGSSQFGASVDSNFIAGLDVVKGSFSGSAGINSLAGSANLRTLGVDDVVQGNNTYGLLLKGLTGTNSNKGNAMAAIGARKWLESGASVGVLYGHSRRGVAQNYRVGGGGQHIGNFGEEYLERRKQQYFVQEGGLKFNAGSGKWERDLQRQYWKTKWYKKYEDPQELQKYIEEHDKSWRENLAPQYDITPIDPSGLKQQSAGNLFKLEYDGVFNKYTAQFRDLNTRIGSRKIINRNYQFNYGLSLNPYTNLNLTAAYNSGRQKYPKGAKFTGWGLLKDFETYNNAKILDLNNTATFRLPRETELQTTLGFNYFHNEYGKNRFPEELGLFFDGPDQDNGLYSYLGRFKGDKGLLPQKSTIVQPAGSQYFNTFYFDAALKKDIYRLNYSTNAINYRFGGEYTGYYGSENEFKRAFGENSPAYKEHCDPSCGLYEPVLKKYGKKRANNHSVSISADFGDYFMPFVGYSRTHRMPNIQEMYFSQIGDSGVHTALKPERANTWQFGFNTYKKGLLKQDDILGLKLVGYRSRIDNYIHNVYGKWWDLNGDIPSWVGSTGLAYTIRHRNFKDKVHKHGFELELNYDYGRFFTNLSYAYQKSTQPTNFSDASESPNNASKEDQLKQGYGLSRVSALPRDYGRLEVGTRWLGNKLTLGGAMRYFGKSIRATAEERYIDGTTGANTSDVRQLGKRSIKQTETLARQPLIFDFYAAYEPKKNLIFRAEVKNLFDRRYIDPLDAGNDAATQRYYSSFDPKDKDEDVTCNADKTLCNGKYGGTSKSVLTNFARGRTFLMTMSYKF


Key:
[1] = target: T1, recombinant TdfH (Neisseria gonorrhoeae …); assay: ITC; Nano ITC, 25°C, 1x PBS with 0.05% DDM; TdfH (300 μl, 20 μM) in the cell, CP sample (200 μM) in 20 injections of 2.5 μl; fitted with NanoAnalyze to a two-state (multisite) model, TKO to a single-site model; conditions: both partners purified
TdfH = target: T2, TdfH (Neisseria gonorrhoeae, UniProt A0ACH0F8A9 1-922); assay: ITC; CP sample (200 uM) injected into TdfH (300 ul at 20 uM) in the cell, 20 injections of 2.5 ul every 300 s, 25 C, 1x PBS with 0.05% DDM; fitted with NanoAnalyze (multi-site model; independent model for TKO); conditions: both partners purified
T2 construct: TdfH, TonB-dependent transporter of Neisseria gonorrhoeae, locus NGO0952; full-length tdfH gene, codon optimised for E. coli; In 0.05% DDM; also called recombinant TdfH; NGO0952

Binder	Kd [1]	stoichiometry N (TdfH)
total knockout human calprotectin (both Zn binding sites mutated) (complex, Positions are not printed here. They follow the cited calprotectin site-knockout constructs and fit the printed counts (4 His-Asn in site 1; 3 His-Asn plus Asp-Ser in site 2). Cys kept as wild type …) chain 1: MLTELEKALNSIIDVYNKYSLIKGNFNAVYRDDLKKLLETECPQYIRKKGADVWFKELDINTDGAVNFQEFLILVIKMGVAANKKSNEESHKE chain 2: MTCKMSQLERNIETIINTFNQYSVKLGHPSTLNQGEFKELVRKDLQNFLKKENKNEKVIEHIMEDLDTNADKQLSFEEFIMLMARLTWASNEKMNEGDEGPGHHHKPGLGEGTP	13 µM	
total knockout hCP (complex, Same construct as m7. Positions come from the cited constructs and are not printed here.) chain 1: MLTELEKALNSIIDVYNKYSLIKGNFNAVYRDDLKKLLETECPQYIRKKGADVWFKELDINTDGAVNFQEFLILVIKMGVAANKKSNEESHKE chain 2: MTCKMSQLERNIETIINTFNQYSVKLGHPSTLNQGEFKELVRKDLQNFLKKENKNEKVIEHIMEDLDTNADKQLSFEEFIMLMARLTWASNEKMNEGDEGPGHHHKPGLGEGTP		0.67 ± 0.12
